Measurements published in US20070275001A1, “Rational Design and Engineering of Proteins and Peptides for Immunomodulation” (Arizona Board of Regents, priority 2004, published 2007).
No end group written: not given here.

Tests used:
[1] = Chemical denaturation with guanidinium hydrochloride monitored by CD at 222 nm (thermodynamic stability); assay type: physicochemical
Experimental: The thermodynamic stability of the proteins was assessed by chemical denaturation studies, in which the CD signal at 222 nm was monitored at increasing concentrations of denaturant agent, guanidinium hydrochloride (FIG. 7B). A 1 cm path length rectangular quartz cell was used. The cell holder was temperature controlled at 25° C. The buffer was 10 mM potassium phosphate, pH 7.0. The bandwidth was 1.00 nm. At each GdnHCl concentration, cell chamber was equilibrated for 6 minutes, then data were collected. The curve is described by the equation: ΔGobs=ΔGH2O+m[GdnHCl] in which ΔGobs is the free energy for the two state unfolding equilibrium observed at a given concentration of GdnHCl, ΔGH2O is the free energy of denaturation extrapolated to zero GdnHCl concentration, m is a constant that provide a measure of the cooperativity of the process.
The resulting sigmoidal curve was analyzed to extrapolate the free energy of folding, ΔG, estimated to be −4.2 Kcal/mol; the corresponding ΔG for 1LQ7 is −4.6 Kcal/mol.

[2] = corresponding value for the original scaffold protein; cited from earlier work
macrophages [3] = assay: Quantification of phagocytosis of IgG-opsonized FITC latex beads by flow cytometry (in vitro macrophage activation test); assay type: cell-based; details: cells stimulated overnight, then 30' with FITC beads conjugated with IgG
Experimental: The present invention discloses a method for rapid, quantitative in vitro testing for macrophage activation. Phagocytosis is a cytoskeleton-dependent process of engulfment of large particles. Phagocytes use various surface receptors to bind and internalize the foreign particles for processing the pathogens in lysosomes (phagolysosomes) for presentation of antigens to the immune system. The effects of Gc-MAF with both positive and negative controls of phagocytosis are determined. As positive controls, macrophages are also stimulated with Beta-1,3 glucans, a well-known immune stimulator, for functional comparison. Specifically, curdlan, linear (1,3)-Beta-D-glucans are used. […] Once the cells are suspended in the culture medium, quantification of phagocytosis is accomplished by flow cytometry. One unique feature of flow cytometry is that it measures fluorescence per cell or particle. FIG. 8 illustrates the quantification of phagocytosis by flow cytometry. […] A FACSCalibur (FACS=Fluorescence Activated Cell Sorter) system (Becton Dickinson) equipped with an air-cooled argon ion laser (488 nm, 15 mW output) is used for this study. Forward light scatter (FSC) and 90° light scatter (SSC) were measured at 488 nm and fluorescence emissions (FL parameters) were collected using the FSC as the triggering signal. Fluorescence data was reported by CellQuest software (Becton Dickinson). […]

macrophages [4] = details: cited from earlier work

MM1: 69 residue three-helix bundle peptide: scaffold 1LQ7 with both loops replaced by Gc-MAF Domain III loop; non-glycosylated analog, negative control (chain 1 Ac-GSRVKALEEKVKALEEKVKALGNAT; chain 2 PTELAKKKWEELKKKIEELGNATPT; chain 3 EVKKVEEEVKKLEEEIKKL-NH2; not fully specified (N-terminus); also: helices are one chain joined by the loops, non-glycosylated)
free energy of folding, ΔG ([1]; GdnHCl denaturation, 25° C., 10 mM potassium phosphate, pH 7.0, extrapolated to zero GdnHCl): -4.2 kcal/mol
free energy of folding relative to that of the original scaffold protein, 1LQ7 ([1]; difference from 1LQ7): ≤ 30%
aggregation state ([1]; helical content at room temperature and free energy of folding independent of concentration, corroborated by equilibrium sedimentation): monomeric

1LQ7: stable designed three-helix bundle scaffold from the Protein Data Bank, originally designed at the University of Pennsylvania (chain 1 GSRVKALEEKVKALEEKVKALGGGG; chain 2 RIEELKKKWEELKKKIEELGGGG; chain 3 EVKKVEEEVKKLEEEIKKL; not fully specified (N-terminus); also: helices are one chain joined by GGGG loops)
free energy of folding, ΔG (scaffold) [2]: -4.6 kcal/mol

B1: Gc-MAF: serum glycoprotein macrophage activating factor, formed from Vitamin D Binding Protein by post-translation modifications (protein, UniProt P02774 17-474, looked up)
Vitamin D-binding protein: LERGRDYEKNKVCKEFSHLGKEDFTSLSLVLYSRKFPSGTFEQVSQLVKEVVSLTEACCAEGADPDCYDTRTSALSAKSCESNSPFPVHPGTAECCTKEGLERKLCMAALKHQPQEFPTYVEPTNDEICEAFRKDPKEYANQFMWEYSTNYGQAPLSLLVSYTKSYLSMVGSCCTSASPTVCFLKERLQLKHLSLLTTLSNRVCSQYAAYGEKKSRLSNLIKLAQKVPTADLEDVLPLAEDITNILSKCCESASEDCMAKELPEHTVKLCDNLSTKNSKFEDCCQEKTAMDVFVCTYFMPAAQLPELPDVELPTNKDVCDPGNTKVMDKYTFELSRRTHLPEVFLSKVLEPTLKSLGECCDVEDSTTCFNAKGPLLKKELSSFIDKGQELCADYSENTFTEYKKKLAERLKAKLPDATPTELAKLVNKHSDFASNCCSINSPPLYCDSEIDAELKNIL
modifications: deglycosylated macrophage activating form
mean fluorescence intensity (macrophages [3]; FL1 channel, non-stimulated control 543±149): 724±155
percentage of cells positive to phagocytosis (M2) (macrophages [3]; non-stimulated control 43.6±10.3%): 57.5±6.6%
time to macrophage activation (macrophages [4]; enzymatically activated Gc-MAF given to Ehrlich ascite tumor-bearing mice): less than 6 hr
time to substantially increased initiation of antibody production (macrophages [4]; injection of Gc-MAF): ≤ 48 h
